In patent US12018084B2, “Anti-CXCR2 antibodies and uses thereof” (Cephalon LLC, priority 2018, dated 2024):

B1: CXCL7: human agonist chemokine, R&D Systems 393-NP (protein)
chain: AELRCMCIKTTSGIHPKNIQSLEVIGKGTHCNQVEVIATLKDGRKICLDPDAPRIKKIVQKKLAGDESAD
B2: BKO-5E8: VH SEQ ID NO: 21, VL SEQ ID NO: 22 (antibody, V domains shown)
VH: EVQLLESGGGLVQPGGSLRLSCAASGFTFSSYAMSWVRQAPGRGLEWVSAIRGSGAGTYYADSMKGRFTISRDNSKDTLYLLMNSLRAEDTAVYYCSKLEAVSGTGKYFQHWGQGTLVTVSS
VL: SYELTQPPSVSVSPGQTANITCSGDTLGDKFACWYQQKPGQSPVLVIYQDTKRPSGIPERFSGSKSGITATLTISGTQAMDEADFYCQAWNSRGVVFGGGTRLTVL
modifications: BKO_5E8_H5_C05_VH; BKO_5E8_L3_C03_VL
B3: BKO-8C4: VH SEQ ID NO: 39, VL SEQ ID NO: 40 (antibody, V domains shown)
VH: QLQLQESGPGLVKPSETLSLTCTVSGGSIRTSSYYWGWIRQPPGKGLEYIGSIYYSGTTYYNPSLKSRVTMSVDTSKNQFSLKLSSVTAADTAVYYCARHGRVREVPPFDYWGQGTLVTVSS
VL: SSELTQDPAVSVALGQTVRITCQGDSLRYYYASWYQQKPGQAPVLVIYDENSRPSGIPDRFSGSSSGNTASLRITGTQAEDEADYYCNSRDTSGNHWAFGGGTKLTVL
modifications: BKO_8C4_VH; BKO_8C4_VL
B4: BKO-1A1: VH SEQ ID NO: 1, VL SEQ ID NO: 2 (antibody, V domains shown)
VH: QLQLQESGPGLVKPSETLSLTCTVSGGSIRTSSYYWGWIRQPPGKGLEYIGSIYYSGTTYYNPSLKSRVTMSVDTSKNQFSLKMSSVTAADSAVYYCARHGRVREVPPFDYWGQGTLVTVSS
VL: SSELTQDPAVSVALGQTVRITCQGDSLRYYYASWYQQKPGQAPVLVIYDENSRPSGIPDRFSGSSSGNTASLSITGTQAEDEADYYCNSRDTSGNHWAFGGGTKLTVL
modifications: BKO_1A1_VH; BKO_1A1_VL
B5: 102c: VH SEQ ID NO: 162, VL SEQ ID NO: 110 (antibody, V domains shown)
VH: EVQLLESGGGLVQPGGSLRLSCAASGFTFSSSTQSWVRQPPGKGLEWVSAISGRGRSTYYADSVKGRFTISRDNSKNTLYLQMNSLRAEDTAVYYCAIQEGYWGQGILVTVSS
VL: QSALTQPPSASGSPGQSVTISCIGTSSDVGGYNYVSWYQQHPGKAPKLMIYEVSKRPSGVPDRFSGSKSGNTASLTVSGLQAEDEADYYCSSYAGSNNFGVFGGGTKLTVL
modifications: 4A8 VH Variant 102 M34Q_A40P_N56S_R75K_M96E; 4A8 VL variant c D41G_N52S_N94S
B6: BKO-8B6: VH SEQ ID NO: 37, VL SEQ ID NO: 38 (antibody, V domains shown)
VH: EVQLLESGGGLVQPGGSLRLSCAASGFTFSSNAMSWVRQAPGKGLEWVSAISNSGRSTYYADSVKGRFTISRDSSKNTLYLLMNSLRAEDSAVYYCAIKLGYWGQGSLVTVSS
VL: QSALTQPPSASGSPGQSVTISCTGTSSDVGGYNYVSWYQQHPGKAPKLMMYEVSKRPSGVPDRFSGSKSGNTASLTVSGLQAEDEADYYCSSYAGSDNFGVFGGGTRLTVL
modifications: BKO_8B6_VH; BKO_8B6_VL
B7: BKO-5G11: VH SEQ ID NO: 23, VL SEQ ID NO: 24 (antibody, V domains shown)
VH: EVQLLESGGGLVQPGGSLRLSCAVSGFTFSNYAMTWVRQAPGKGLEWVSAISGRGSRTYYADSVKGRFTISRDTSKNTLYLQMNSLRAEDTAVYYCAKMDYWGQGTLVTVSS
VL: QSALTQPPSASGSPGQSVTISCTGTSSDVGGYNYVSWYQQHPGKAPKLMIFEVSKRPSGVPDRFSGSKSGNTASLTVSGLQAEDEADYYCSSYAGSNNFGVFGGGTKLTVL
modifications: BKO_5G11_VH; BKO_5G11_VL
B8: BKO-7C11: VH SEQ ID NO: 31, VL SEQ ID NO: 32 (antibody, V domains shown)
VH: QVQLQQWGAGLLKPSETLSLTCAVYGGSFSGYYWSWIRQPPGKGLEWIGEINHSRNTNYNPSLKSRVTISVDTSKNQFSLKLSSVTAADTAVYYCARGEVRGVFTLYWYFDVWGRGTLVTVSS
VL: SSELTQGPAVSVALGQTVRITCQGNSLRFYYASWYQQRPGQAPILVIYDKNNRPSGIPDRFSGSSSGNTASLTITGAQAEDEADYYCNSRDSSGYYMIFGGGTKLTVL
modifications: BKO_7C11_H6_B06_VH; BKO_7C11_G01_VL

Columns and labels:
Human CXCR2 [1] = biological target: T1, Human CXCR2 (Homo sapiens, UniProt P25025); assay: Tango CXCR2-bla U2OS cell-based β-arrestin recruitment assay; design: The beta-arrestin/TEV protease fusion and the beta-lactamase reporter are separate parts of the cell line; details: human agonist potency
T1 sequence (P25025 1-360): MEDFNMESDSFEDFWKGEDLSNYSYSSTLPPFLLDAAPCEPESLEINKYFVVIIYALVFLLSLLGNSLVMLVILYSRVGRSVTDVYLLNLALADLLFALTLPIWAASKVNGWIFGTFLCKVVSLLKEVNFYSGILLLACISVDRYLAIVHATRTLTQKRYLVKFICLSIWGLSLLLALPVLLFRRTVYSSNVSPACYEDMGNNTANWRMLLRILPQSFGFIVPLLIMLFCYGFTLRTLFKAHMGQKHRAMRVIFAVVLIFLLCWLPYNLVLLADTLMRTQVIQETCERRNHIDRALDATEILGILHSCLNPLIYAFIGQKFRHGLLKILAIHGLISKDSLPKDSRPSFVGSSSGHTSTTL
Source text: Cells were thawed, propagated, cultured and frozen according to the manufacturer's directions.
Preparation of Tango™ CXCR2-bla U2OS cells for use in cell-based assays: The manufacturer's protocol was altered to make use of 96-well plates instead of 384-well plates. Briefly, dividing cells were harvested one day prior to use. Cells were harvested and resuspended in assay medium (100% FreeStyle™ Expression Medium; Life Technologies; Cat #12338-018) at a viable cell density of 312,500 cells/mL. 128 μL of cell suspension was added per well in 96-well black-walled, clear bottom tissue culture-treated plates. Cells were incubated for 16-20 hrs at 37° C. in an atmosphere of 5% CO2 prior to use in assays.
Tango™ assay procedure: Assays were set up and run as described in the manufacturer's protocol. For antagonist assays, agonists were used at concentrations in the EC50-EC80 range. Assays were read using a FlexStation® 3 (Molecular Devices) fluorescence plate reader configured with the parameters given in Table 4. The blue/green emission ratio for each well was calculated by dividing the blue emission values by the green emission values. All inhibition curves were fitted using a four-parameter dose-response using GraphPad Prism™ (Version 7.01).
The Human CXCR2 Tango™ cell line was used to assess the ability of antibody BKO-4A8-101c to inhibit β-arrestin recruitment to agonist-activated CXCR2. All human ELR+ chemokine CXCR2 ligands were tested in antagonist dose response assays using calculated EC50 values of agonist.
The commercially available reporter cell line Tango™ CXCR2-bla U2OS (ThermoFisher Scientific) was used to assess the ability of the anti-CXCR2 antibodies to inhibit β-arrestin recruitment to agonist-activated CXCR2. Agonists were provided at their assay EC50 concentration for antagonist assays.

Human CXCR2 [2] = biological target: T1, Human CXCR2; assay: Calcium flux assay, HTS002C-CHEMISCREEN human CXCR2 calcium-optimized cell line; format: cell-based; details: human agonist potency
Experimental: One of the signaling pathways downstream of CXCR2 activation that has a role in cell chemotaxis is characterized by calcium mobilization (flux). The ability of BKO-4A8-101c to inhibit human CXCR2 ligand-induced calcium flux was tested in the commercially available HTS002C-CHEMISCREEN™ human CXCR2 chemokine receptor calcium-optimized cell line.
The Fluo-4 NW calcium assay kit (Life Technologies) was used according to manufacturer's protocol for in-cell measurement of calcium mobilization, which was read using a FLIPR Tetra high-throughput cellular screening system (Molecular Devices). The peak response minus the basal response from each well was used to determine inhibition dose response curves fitting a four-parameter logistic equation and IC50 values.

Human CXCR2 [3] = biological target: T1, Human CXCR2; assay: cELISA of hybridoma supernatants on cells transfected with human CXCR2; format: binding; design: host or cells: Expi293F cells, vector pTT5; details: hybridoma supernatant; fluorescence units relative to positive control (100%)
Experimental: To generate hybridomas which produced monoclonal antibodies to human CXCR2, splenocytes and/or lymph node cells from animals with the highest anti-CXCR2 titres were isolated and fused to mouse myeloma cells (ATCC, CRL-1580). Cells were plated at approximately 1×10^5 cells/mL in flat bottom microtiter plates, followed by a two week incubation in selective medium (10% FCS and 1×HAT (Sigma)). Hybridomas were expanded by serial passage through four media changes in 96-well plates (96-well stages 1 to 4), then, where required, expanded into T25 and T75 flasks. […] Bound antibodies were detected using a goat anti-rat IgG-HRP (Southern Biotech, #3030-05) secondary antibody.
A panel of hybridomas was generated using lymph nodes and spleen cells from the transgenic rats engineered to express human variable region sequences. A cellular ELISA (cELISA) was used to detect human CXCR2 binding activity in supernatants taken during the expansion process for the hybridomas (Table 5). Hybridomas that retained expression of antibodies that bound CXCR2 after several passages were selected for DNA sequencing.

Murine CXCR2 = biological target: T2, Murine CXCR2 (Mus musculus, UniProt P35343); assay: cELISA of hybridoma supernatants on cells transfected with murine CXCR2; format: binding; details: hybridoma supernatant; fluorescence units relative to positive control (100%)
T2 construct: expressed in transfected cells
T2 sequence (P35343 1-359): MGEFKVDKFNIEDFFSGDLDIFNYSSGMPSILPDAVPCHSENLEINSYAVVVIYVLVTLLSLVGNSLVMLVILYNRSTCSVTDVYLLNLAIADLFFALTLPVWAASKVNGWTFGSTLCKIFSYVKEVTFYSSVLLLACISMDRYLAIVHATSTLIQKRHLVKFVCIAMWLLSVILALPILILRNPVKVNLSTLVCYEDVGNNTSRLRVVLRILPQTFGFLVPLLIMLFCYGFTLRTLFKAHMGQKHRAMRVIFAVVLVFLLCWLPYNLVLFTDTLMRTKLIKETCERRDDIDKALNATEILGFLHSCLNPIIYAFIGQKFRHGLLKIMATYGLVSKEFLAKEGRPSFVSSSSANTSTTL

Human CXCR2 [4] = biological target: T1, Human CXCR2; assay: Flow cytometry binding assay, Expi293F cells transiently transfected with human CXCR2; design: host or cells: Expi293F cells, vector pTT5; details: combinatorial variants with light chain c
Experimental: For each 10 mL transfection, lipid-DNA complexes were prepared by diluting 10 μg of plasmid DNA in Opti-MEM™ I Reduced Serum Medium (Cat. no. 31985-062) to a total volume of 1.0 mL. 54 μL of ExpiFectamine™ 293 Reagent was diluted in Opti-MEM™ I medium to a total volume of 1.0 mL. Transfections were carried out according to manufacturer's instructions. The cells were incubated in a 37° C. incubator with a humidified atmosphere of 8% CO2 in air on an orbital shaker rotating at 200 rpm. Approximately 18-24 hours post-transfection, the cell viability was evaluated and transfected cells harvested for use.
Harvested cells were resuspended in FACS buffer (1×PBS+0.5% (w/v) bovine serum albumin (BSA)+2 mM EDTA pH 7.2). Approximately 2×10^5 cells were added per well in a 96-well round-bottomed plate. Cells were pelleted by centrifugation at 400 g for 5 mins at 4° C. and supernatants discarded. 25 μL of each test antibody or control antibody was added to the cells and incubated for 30 minutes at 4° C. Cells were washed twice in 100 μL FACS buffer followed by centrifugation at 400 g for 5 mins at 4° C.
For detection, 50 μL of secondary antibody (Table 2) was added to relevant samples. Commercially available antibodies that bound to transfected CXCR family members were used as positive controls to ensure that the cells were expressing the receptors. Cells were washed twice in 200 μL of FACS buffer followed by centrifugation at 400 g for 5 mins at 4° C. Before sample acquisition, cells were resuspended in 100 μL of FACS buffer. Samples were acquired using the high throughput sampler on a FACSCanto™ II cytometer (Beckton-Dickinson).
Binding of BKO-4A8 and variants thereof was detected by incubation of fluorochrome-conjugate anti-human IgG light chain lambda antibody. The binding activity of antibodies tested, quantified as mean fluorescent intensity, was independent of the antibody Fc region as illustrated in FIG. 9.

Molecule | EC50 (Human CXCR2 [1]) [nM] | EC50 (Human CXCR2 [2]) [nM] | Human CXCR2 % Positive (Human CXCR2 [3]) [%] | Murine CXCR2 % Positive (Murine CXCR2) [%] | CXCR2 binding activity versus parental BKO-4A8 (Human CXCR2 [4])
B1 | 39.6 | 7.14 | – | – | –
B2 | – | – | 109 | 8 | –
B3 | – | – | 124 | 6 | –
B4 | – | – | 38 | 6 | –
B5 | – | – | – | – | reduced
B6 | – | – | 95 | 6 | –
B7 | – | – | 101 | 22 | –
B8 | – | – | 73 | 4 | –
